# Measured values: patent US20230002480A1
# Assays:
# Assay in all cases: cell-based or functional assay
# [1] = biological target: HIV-1 Env of pseudovirus 1006_11_C3_1601 (HIV-1)
# [2] = biological target: HIV-1 Env of pseudovirus 1012_11_TC21_3257 (HIV-1)
# [3] = biological target: HIV-1 Env of pseudovirus 1056_10_TA11_1826 (HIV-1)
# [4] = biological target: HIV-1 Env of pseudovirus 191955_A11 (HIV-1)
# [5] = biological target: HIV-1 Env of pseudovirus 235-47 (HIV-1)
# [6] = biological target: HIV-1 Env of pseudovirus 249M B10 (HIV-1)
# [7] = biological target: HIV-1 Env of pseudovirus 3103.v3.c10 (HIV-1)
# [8] = biological target: HIV-1 Env of pseudovirus 62357_14_D3_4589 (HIV-1)
# [9] = biological target: HIV-1 Env of pseudovirus 6244_13_B5_4576 (HIV-1)
# [10] = biological target: HIV-1 Env of pseudovirus 6540.v4.c1 (HIV-1)
# [11] = biological target: HIV-1 Env of pseudovirus 6545.v4.c1 (HIV-1)
# [12] = biological target: HIV-1 Env of pseudovirus BJOX009000.02.4 (HIV-1)
# [13] = biological target: HIV-1 Env of pseudovirus C1080.c03 (HIV-1)
# [14] = biological target: HIV-1 Env of pseudovirus C3347.c11 (HIV-1)
# [15] = biological target: HIV-1 Env of pseudovirus CAP210.2.00.E8 (HIV-1)
# [16] = biological target: HIV-1 Env of pseudovirus CAP45.2.00.G3 (HIV-1)
# [17] = biological target: HIV-1 Env of pseudovirus CNE21 (HIV-1)
# [18] = biological target: HIV-1 Env of pseudovirus CNE30 (HIV-1)
# [19] = biological target: HIV-1 Env of pseudovirus CNE52 (HIV-1)
# [20] = biological target: HIV-1 Env of pseudovirus CNE53 (HIV-1)
# [21] = biological target: HIV-1 Env of pseudovirus Ce0393_C3 (HIV-1)
# [22] = biological target: HIV-1 Env of pseudovirus Ce1176_A3 (HIV-1)
# [23] = biological target: HIV-1 Env of pseudovirus Ce704809221_1B3 (HIV-1)
# [24] = biological target: HIV-1 Env of pseudovirus HIV-0013095-2.11 (HIV-1)
# [25] = biological target: HIV-1 Env of pseudovirus R1166.c01 (HIV-1)
# [26] = biological target: HIV-1 Env of pseudovirus R2184.c04 (HIV-1)
# [27] = biological target: HIV-1 Env of pseudovirus RHPA4259.7 (HIV-1)
# [28] = biological target: HIV-1 Env of pseudovirus SC05_8C11_2344 (HIV-1)
# [29] = biological target: HIV-1 Env of pseudovirus T255-34 (HIV-1)
# [30] = biological target: HIV-1 Env of pseudovirus TRJO4551.58 (HIV-1)
# [31] = biological target: HIV-1 Env of pseudovirus TRO.11 (HIV-1)
# [32] = biological target: HIV-1 Env of pseudovirus X1632_S2_B10 (HIV-1)
# [33] = biological target: HIV-1 Env of pseudovirus X2131_C1_B5 (HIV-1)
# [34] = biological target: HIV-1 Env of pseudovirus ZM135M.PL10a (HIV-1)
# [35] = biological target: HIV-1 Env of pseudovirus ZM214M.PL15 (HIV-1)
# [36] = biological target: HIV-1 Env of pseudovirus ZM233M.PB6 (HIV-1)
# [37] = biological target: HIV-1 Env of pseudovirus T251-18 (HIV-1)
substance,measurement,setting,value
8ANC195 (antibody),neutralization IC50,[1],0.43 µg/mL
same,neutralization IC80,[1],1.98 µg/mL
same,neutralization IC50,[2],> 50 µg/mL
same,neutralization IC80,[2],> 50 µg/mL
same,neutralization IC50,[3],> 50 µg/mL
same,neutralization IC80,[3],> 50 µg/mL
same,neutralization IC50,[4],> 50 µg/mL
same,neutralization IC80,[4],> 50 µg/mL
same,"IC50, titer in TZM.bl cells",[5],> 50 µg/mL
same,"IC80, titer in TZM.bl cells",[5],> 50 µg/mL
same,neutralization IC50,[6],> 50 µg/mL
same,neutralization IC80,[6],> 50 µg/mL
same,"IC50, titer in TZM.bl cells",[7],48.1 µg/mL
same,"IC80, titer in TZM.bl cells",[7],> 50 µg/mL
same,neutralization IC50,[8],> 50 µg/mL
same,neutralization IC80,[8],> 50 µg/mL
same,neutralization IC50,[9],> 50 µg/mL
same,neutralization IC80,[9],> 50 µg/mL
same,"IC50, titer in TZM.bl cells",[10],> 50 µg/mL
same,"IC80, titer in TZM.bl cells",[10],> 50 µg/mL
same,"IC50, titer in TZM.bl cells",[11],26.9 µg/mL
same,"IC80, titer in TZM.bl cells",[11],> 50 µg/mL
same,"IC50, titer in TZM.bl cells",[12],0.64 µg/mL
same,"IC80, titer in TZM.bl cells",[12],3.09 µg/mL
same,"IC50, titer in TZM.bl cells",[13],0.17 µg/mL
same,"IC80, titer in TZM.bl cells",[13],1.12 µg/mL
same,"IC50, titer in TZM.bl cells",[14],> 50 µg/mL
same,"IC80, titer in TZM.bl cells",[14],> 50 µg/mL
same,neutralization IC50,[15],> 50 µg/mL
same,neutralization IC80,[15],> 50 µg/mL
same,neutralization IC50,[16],28.3 µg/mL
same,neutralization IC80,[16],> 50 µg/mL
same,neutralization IC50,[17],0.27 µg/mL
same,neutralization IC80,[17],1.52 µg/mL
same,neutralization IC50,[18],7.52 µg/mL
same,neutralization IC80,[18],40.5 µg/mL
same,neutralization IC50,[19],5.59 µg/mL
same,neutralization IC80,[19],43.1 µg/mL
same,neutralization IC50,[20],> 50 µg/mL
same,neutralization IC80,[20],> 50 µg/mL
same,neutralization IC50,[21],6.77 µg/mL
same,neutralization IC80,[21],> 50 µg/mL
same,neutralization IC50,[22],4.45 µg/mL
same,neutralization IC80,[22],35.2 µg/mL
same,neutralization IC50,[23],0.48 µg/mL
same,neutralization IC80,[23],3.52 µg/mL
same,neutralization IC50,[24],0.32 µg/mL
same,neutralization IC80,[24],1.85 µg/mL
same,"IC50, titer in TZM.bl cells",[25],4.83 µg/mL
same,"IC80, titer in TZM.bl cells",[25],4.83 µg/mL
same,"IC50, titer in TZM.bl cells",[26],0.09 µg/mL
same,"IC80, titer in TZM.bl cells",[26],13 µg/mL
same,neutralization IC50,[27],0.34 µg/mL
same,neutralization IC80,[27],1.56 µg/mL
same,neutralization IC50,[28],0.47 µg/mL
same,neutralization IC80,[28],3.06 µg/mL
same,"IC50, titer in TZM.bl cells",[29],0.54 µg/mL
same,"IC80, titer in TZM.bl cells",[29],8.09 µg/mL
same,neutralization IC50,[30],0.19 µg/mL
same,neutralization IC80,[30],1.17 µg/mL
same,neutralization IC50,[31],0.18 µg/mL
same,neutralization IC80,[31],0.89 µg/mL
same,"IC50, titer in TZM.bl cells",[32],0.47 µg/mL
same,"IC80, titer in TZM.bl cells",[32],4.11 µg/mL
same,"IC50, titer in TZM.bl cells",[33],3.47 µg/mL
same,"IC80, titer in TZM.bl cells",[33],> 50 µg/mL
same,neutralization IC50,[34],> 50 µg/mL
same,neutralization IC80,[34],> 50 µg/mL
same,neutralization IC50,[35],0.91 µg/mL
same,neutralization IC80,[35],12.3 µg/mL
same,neutralization IC50,[36],7.39 µg/mL
same,neutralization IC80,[36],43.5 µg/mL
N49P7.1 (antibody),neutralization IC50,[1],0.061 µg/mL
same,neutralization IC80,[1],0.193 µg/mL
same,neutralization MPI,[1],100
same,neutralization IC50,[2],0.063 µg/mL
same,neutralization IC80,[2],0.176 µg/mL
same,neutralization MPI,[2],100
same,neutralization IC50,[3],0.171 µg/mL
same,neutralization IC80,[3],0.603 µg/mL
same,neutralization MPI,[3],100
same,neutralization IC50,[4],1.99 µg/mL
same,neutralization IC80,[4],10.1 µg/mL
same,neutralization MPI,[4],98
same,neutralization IC50,[5],0.078 µg/mL
same,neutralization IC80,[5],0.419 µg/mL
same,neutralization MPI,[5],97
same,neutralization IC50,[6],0.053 µg/mL
same,neutralization IC80,[6],0.225 µg/mL
same,neutralization MPI,[6],100
same,neutralization IC50,[8],0.028 µg/mL
same,neutralization IC80,[8],0.15 µg/mL
same,neutralization MPI,[8],100
same,neutralization IC50,[9],0.184 µg/mL
same,neutralization IC80,[9],0.493 µg/mL
same,neutralization MPI,[9],100
same,neutralization IC50,[12],0.219 µg/mL
same,neutralization IC80,[12],0.756 µg/mL
same,neutralization MPI,[12],100
same,neutralization IC50,[13],0.144 µg/mL
same,neutralization IC80,[13],1.05 µg/mL
same,neutralization MPI,[13],100
same,neutralization IC50,[14],0.048 µg/mL
same,neutralization IC80,[14],0.161 µg/mL
same,neutralization MPI,[14],100
same,neutralization IC50,[15],2.03 µg/mL
same,neutralization IC80,[15],7.3 µg/mL
same,neutralization MPI,[15],99
same,neutralization IC50,[16],0.086 µg/mL
same,neutralization IC80,[16],0.567 µg/mL
same,neutralization MPI,[16],100
same,neutralization IC50,[17],1.58 µg/mL
same,neutralization IC80,[17],12.2 µg/mL
same,neutralization MPI,[17],96
same,neutralization IC50,[18],0.307 µg/mL
same,neutralization IC80,[18],1.01 µg/mL
same,neutralization MPI,[18],100
same,neutralization IC50,[19],0.021 µg/mL
same,neutralization IC80,[19],0.058 µg/mL
same,neutralization MPI,[19],100
same,neutralization IC50,[20],0.066 µg/mL
same,neutralization IC80,[20],0.228 µg/mL
same,neutralization MPI,[20],100
same,neutralization IC50,[21],0.23 µg/mL
same,neutralization IC80,[21],1.02 µg/mL
same,neutralization MPI,[21],100
same,neutralization IC50,[22],0.279 µg/mL
same,neutralization IC80,[22],1.01 µg/mL
same,neutralization MPI,[22],100
same,neutralization IC50,[23],0.211 µg/mL
same,neutralization IC80,[23],1.35 µg/mL
same,neutralization MPI,[23],100
same,neutralization IC50,[24],0.105 µg/mL
same,neutralization IC80,[24],0.374 µg/mL
same,neutralization MPI,[24],100
same,neutralization IC50,[25],0.136 µg/mL
same,neutralization IC80,[25],0.461 µg/mL
same,neutralization MPI,[25],100
same,neutralization IC50,[26],0.018 µg/mL
same,neutralization IC80,[26],0.04 µg/mL
same,neutralization MPI,[26],100
same,neutralization IC50,[27],0.108 µg/mL
same,neutralization IC80,[27],0.292 µg/mL
same,neutralization MPI,[27],100
same,neutralization IC50,[28],0.189 µg/mL
same,neutralization IC80,[28],0.688 µg/mL
same,neutralization MPI,[28],100
same,neutralization IC50,[37],0.229 µg/mL
same,neutralization IC80,[37],0.794 µg/mL
same,neutralization MPI,[37],100
same,neutralization IC50,[29],0.094 µg/mL
same,neutralization IC80,[29],0.447 µg/mL
same,neutralization MPI,[29],100
same,neutralization IC50,[30],0.156 µg/mL
same,neutralization IC80,[30],0.529 µg/mL
same,neutralization MPI,[30],100
same,neutralization IC50,[31],0.055 µg/mL
same,neutralization IC80,[31],0.191 µg/mL
same,neutralization MPI,[31],100
same,neutralization IC50,[34],0.314 µg/mL
same,neutralization IC80,[34],1.11 µg/mL
same,neutralization MPI,[34],99
same,neutralization IC50,[35],0.257 µg/mL
same,neutralization IC80,[35],0.853 µg/mL
same,neutralization MPI,[35],100
same,neutralization IC50,[36],0.355 µg/mL
same,neutralization IC80,[36],1.25 µg/mL
same,neutralization MPI,[36],100
